We go through two proteins from paper PMC3098241, “Amyloid-Associated Nucleic Acid Hybridisation” (PLoS ONE, 2011).

Series [1] deals with the molecule itself. Nature of the series: X-ray fibre diffraction; dried aligned stalks from gels of peptide with salmon testis DNA or poly(A) RNA (5 mM (KL)5 + 5 mM DNA, pH 7, 150 mM NaCl; 16 mM (HL)5 + 10 mM poly(A) RNA pH 6; 1.6 mM TVQFHMH + 1.6 mM DNA pH 5.0; 16 mM TVQFHMH + 10 mM poly(A) RNA pH 6.0; 10 mM (KL)3 + 10 mM DNA; 5 mM (HL)3 + 5 mM DNA pH 6.2); cross-beta pattern as the sign of peptide self-assembly.

Series [2] deals with the molecule itself. The experiment in a line: circular dichroism + transmission electron microscopy; 0.8 mM STVIIE, 20 mM glycine pH 2.6, 20 C, spectra every 30 min for 24 h, without or with 242 nM 33mer DNA oligonucleotide (1:100 charge ratio); random coil to beta-sheet transition and fibrils. A general note: CD spectra are sensitive to the conformation of chiral molecules.

B1: TVQFHMH (peptide)
peptide: TVQFHMH
notes: source: synthetic peptide, bought: GL Biochem (PR China) or Peptide 2.0 (USA), 95% purity
B1: the binding result in series [1] is “binds”.

B2: STVIIE (peptide)
peptide: STVIIE
notes: source: synthetic peptide, bought: Severn Biotech (UK), HPLC-purified
Regarding B2, the binding result in series [2] was “binds”.
